Source: patent US20120329986A1 (UNIVERSITE DE MONTREAL, published 2012)
Square brackets hold non-standard residues; d marks the D form. Ends that are not written are not given here. dTrp(2-Me) = Cc1[nH]c2ccccc2c1C[C@@H](N)C(=O)O; HAIC = not defined here

Biological target: CD36 receptor (in the src-kinase cellular assay)
Test: cell-based or functional assay

SRC-kinase cellular assay EC50: 26 nM
Binder: [HAIC][dTrp(2-Me)][dK]W[dF]K-NH2 (reading uncertain) [EP80317]
